This passage reports stoichiometry N results from paper PMC4829898.

A word on the stoichiometry N: it is a count of units in the complex or per binding partner.

The target of the experiment is recombinant soluble trimeric hemagglutinin (triHA) (influenza A virus A/Belgium/2009 (H1N1, 2009 pandemic) | Saccharomyces cerevisiae). Put plainly: SEC.

In the case of “recombinant soluble trimeric hemagglutinin (triHA)”, the stoichiometry N is 3.
